Patent US20240076361A1 (EISAI R AND D MANAGEMENT, published 2024)

Molecular target: T1, non-phosphorylated Tau (Tau-441 (2N4R), rPeptide LLC) (human, UniProt P10636 1-758)
T1 construct: also called non-phosphorylated Tau protein (2N4R); recombinant Tau
Experiment: sandwich ELISA: antigen captured by coated anti-Tau antibody BT2, detected with the peroxidase-labelled antibody at 80 ng/mL; antigen concentration varied
Experimental: Anti-Tau monoclonal antibody BT2 (Thermo Fisher Scientific) was adjusted with 50 mM Tris/HCl (pH 7.5) to a concentration of 1 microgram/mL, and then injected at 100 microliter/well in a Maxisorp cup (NUNC). The cup was placed in a humid box and coated overnight at 4 degrees Celsius. After the antibody solution was removed by aspiration, a blocking solution (5% skimmed milk (FUJIFILM Wako Pure Chemical), 50 mM Tris/HCl (pH 7.5), 150 mM NaCl, 0.1% sodium azide) was injected at 200 microliter/well, followed by blocking at room temperature for 2 hours or at 4 degrees Celsius for one day or more (hereinafter referred to as “BT2 cup”). The test recombinant antibodies: 5F6-4D1, 7G5-4B8, 2H8-1G7, 2H8-1G7(KC14S) and comparator antibodies: PT3 and anti-pT217 Tau polyclonal antibody (Genscript poly; Cat. No. A00896, Genscript) were labeled with peroxidase using a Peroxidase Labeling Kit-NH2 (DOJINDO MOLECULAR TECHNOLOGIES) in accordance with the instruction manual attached to the kit (hereinafter referred to as “peroxidase-labeled pT217 Tau antibodies”). […]

T1 sequence (P10636 other isoform, or with tags, fused parts or gaps limits assumed): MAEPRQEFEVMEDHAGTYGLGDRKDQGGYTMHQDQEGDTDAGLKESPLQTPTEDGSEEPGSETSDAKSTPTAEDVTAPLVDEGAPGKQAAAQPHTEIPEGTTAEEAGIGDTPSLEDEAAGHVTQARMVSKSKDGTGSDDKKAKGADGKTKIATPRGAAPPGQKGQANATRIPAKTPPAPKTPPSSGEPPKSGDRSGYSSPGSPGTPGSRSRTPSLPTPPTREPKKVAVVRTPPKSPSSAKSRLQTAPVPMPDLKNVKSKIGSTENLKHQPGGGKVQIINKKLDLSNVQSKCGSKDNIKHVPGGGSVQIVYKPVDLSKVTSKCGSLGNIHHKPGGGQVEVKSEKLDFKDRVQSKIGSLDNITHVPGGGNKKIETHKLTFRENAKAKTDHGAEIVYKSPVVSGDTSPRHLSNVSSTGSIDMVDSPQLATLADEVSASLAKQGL

binding result: no binding (tested: 80000 pg/mL)
B1: 2H8-1G7(KC14S) (antibody, mouse IgG2b, kappa, V domains shown)
VH: EVQLVESGGGLVKPGGSLKLSCAASGFTVSDYGMHWVRQAPEKGLEWIAYISSGSSTIYYVDTVKGRFTISRDNAKNTLFLQMTSLRSEDTAMYYCARRLSIWGTGTTVTVSS
VL: QIVLTQSPAIMSASPGEKVTMTCSASSSVSSMYWYHQKPGSSPRLLIYDTSNLASGVPVRFSGSGSGTSYSLTISRMEAEDAATYYCLQWSSYPLTFGAGTKLELKR
notes: Recombinant mouse IgG2b kappa
